Legend:
[1] = LogD determination: partition between 1-octanol and phosphate buffer pH 7.4
Procedure: In the following, the lipophilicity of the labeled conjugates was investigated to get a first idea of the potential excretion pathway of the agents during an in vivo application. The logD values were determined by partition experiments between n-octanol and aqueous solution at pH 7.4.
The mixtures were intensively shaken for 5 min on a vibrating plate. After subsequent centrifugation at 13,000 rpm for 5 min, 125 µL were taken from each phase and measured in a γ-counter. The logD values were calculated from three or four independent experiments, each performed in triplicate.

GRPR = biological target: T1, GRPR (Homo sapiens, UniProt P30550); test: Competitive displacement assay on stably GRPR-transfected HEK-293 cells, [125I]I-Tyr4-bombesin as competitor; assay type: binding; details: GRPR-expressing HEK cells, mean ± SD
T1 construct: host or cells: HEK-293 (HEK-GRPR), stably transfected
Procedure: Each compound was evaluated at least three times, each experiment being performed in triplicate. […] The respective cells were harvested and re-suspended in the binding buffer to give a cell concentration of 2 × 10^6/mL. […] Using a Millipore MultiScreen disposable punch and a Millipore MultiScreen punch kit, the filters of the well plate were collected in γ-counter tubes separately and measured by γ-counting.

T1 sequence (P30550 whole entry, species assumed): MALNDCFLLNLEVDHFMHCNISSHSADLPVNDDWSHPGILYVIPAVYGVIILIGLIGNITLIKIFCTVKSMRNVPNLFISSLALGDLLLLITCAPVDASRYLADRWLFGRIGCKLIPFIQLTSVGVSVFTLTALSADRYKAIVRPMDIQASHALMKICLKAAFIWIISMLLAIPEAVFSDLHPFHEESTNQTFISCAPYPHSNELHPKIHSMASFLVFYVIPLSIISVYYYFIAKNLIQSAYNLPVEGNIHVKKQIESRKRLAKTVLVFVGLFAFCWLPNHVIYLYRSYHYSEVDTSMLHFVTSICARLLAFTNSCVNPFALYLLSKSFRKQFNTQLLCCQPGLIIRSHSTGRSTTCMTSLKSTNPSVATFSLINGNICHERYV

Q: Which logD [1] does the source give for `CSCC[C@H](NC(=O)[C@H](CC(C)C)NC(=O)[C@H](Cc1c[nH]cn1)NC(=O)CNC(=O)[C@@H](NC(=O)[C@H](C)NC(=O)[C@H](Cc1c[nH]c2ccccc12)NC(=O)[C@H](CCC(N)=O)NC(=O)CCOCCOCCOCCOCCNC(=O)CCCN1C(=O)CC(SC[C@H](NC(=O)CNC(=O)CC[C@H](C(=O)O)N2CCN(CC(=O)O)CCN(CC(=O)O)CC2)C(N)=O)C1=O)C(C)C)C(N)=O` (some centres unmarked) [10 a, BBN7-14-NODA-GA] here?
A: Its logD is -3.78 ± 0.04.

Q: And the IC50 (GRPR)?
A: The IC50 was 19.1 ± 1.44 nM.

Reference: article PMC8541144, “Synthesis, Characterization and In Vitro Evaluation of Hybrid Monomeric Peptides Suited for Multimodal Imaging by PET/OI: Extending the Concept of Charge—Cell Binding Correlation” (Pharmaceuticals, 2021)
